Kd data for 28 sequences are collected here from the Immune Epitope Database (IEDB).

Holding throughout (assay): IEDB peptide-MHC binding, purified MHC/competitive/radioactivity; filed as Kd, often an IC50 or EC50 that approximates it; ≥ and ≤ were set here for values at or beyond the usual limits of such assays
For assay [1], the target named is HLA-A*02:06.
The target in assay [2] is HLA-A*02:03.
Assay [3] deals with HLA-A*02:02.
The target in assay [4] is HLA-A*33:01.
Assay [5] concerns the target HLA-A*03:01.
The target of assay [6] is HLA-A*68:01.
In assay [7] the target is HLA-A*11:01.
The target in assay [8] is HLA-A*31:01.
Setting [9] is: source organism: Vaccinia virus WR.
[10] abbreviates: source organism: Dengue virus 3 Martinique/1243/1999.
Where [11] appears, read: source organism: Lymphocytic choriomeningitis virus (strain Armstrong).
[12] abbreviates: source organism: SARS coronavirus Tor2.

As for AAITLVVISV, the Kd in assay [1] (setting [9]) is 26.8 nM; in assay [2] (setting [9]), 246 nM; in assay [3] (setting [9]), 501 nM.

For KQIANELNYI, the Kd in assay [1] (setting [10]) was 32.5 nM.

Turning to HNASDFYGL, the Kd in assay [1] (setting [11]) is at least 21700 nM; in assay [2] (setting [11]) it was at least 78100 nM; in assay [3] (setting [11]) it was 6510 nM.

For FVLALYSPPL, the Kd stood at 212 nM in assay [1] (setting [9]), 38.4 nM in assay [2] (setting [9]) and 2.19 nM in assay [3] (setting [9]).

CIVAAVIIM: the Kd was at least 32600 nM in assay [1] (setting [9]), 1420 nM in assay [2] (setting [9]) and 14300 nM in assay [3] (setting [9]).

As to DVSLSAYII, the values for the Kd in assay [1] (setting [9]), in assay [2] (setting [9]) and in assay [3] (setting [9]) were 4380 nM, 755 nM and 691 nM, respectively.

Consider KLFKRERDAI, for which the Kd in assay [1] (setting [9]) was 14200 nM; in assay [2] (setting [9]) it was 120 nM; in assay [3] (setting [9]) it was 92.5 nM.

Turning to SLVSKHWEL, the results for the Kd in assay [1] (setting [9]), in assay [2] (setting [9]) and in assay [3] (setting [9]) were 34.9 nM, 36 nM and 1.16 nM, respectively.

For the sequence ALLFLMSFTI, the results for the Kd in assay [1] (setting [12]), in assay [2] (setting [12]) and in assay [3] (setting [12]) were 14.4 nM, 199 nM and 0.365 nM, respectively.

Consider FIPIIYSKA, for which the figures for the Kd in assay [1] (setting [9]), in assay [2] (setting [9]) and in assay [3] (setting [9]) were 94.6 nM, 1.81 nM and 0.555 nM, respectively.

Regarding LQWIASAIV, in assay [1] (setting [10]), the Kd was 3.72 nM.

As for LAISAVYFKA, the values for the Kd in assay [1] (setting [9]), in assay [2] (setting [9]) and in assay [3] (setting [9]) were 659 nM, 363 nM and 1430 nM, respectively.

Take RQVSVKLLI: the Kd amounted to 0.135 nM in assay [1] (setting [9]), 254 nM in assay [2] (setting [9]) and 17900 nM in assay [3] (setting [9]).

As for ELSRLRYNL, the Kd in assay [1] (setting [9]) amounted to 18600 nM; in assay [2] (setting [9]), 254 nM; in assay [3] (setting [9]), 0.93 nM.

For IMKDGRVLVV, the Kd in assay [2] (source organism: Dengue virus 2 16681-PDK53) is 6.09 nM.

As for GLSSRATWA, the Kd in assay [2] (source organism: Dengue virus 4 Philippines/H241/1956) is 36.9 nM.

On to GLFGKGSLI, for which the Kd in assay [2] (source organism: Dengue virus 1 Nauru/West Pac/1974) was 13 nM.

Turning to PLNEGIMAI, the Kd in assay [2] (source organism: Dengue virus 1 Brazil/97-11/1997) was determined as 63.8 nM.

For VVSTGYHFR, the Kd stood at 41.2 nM in assay [4] (setting [12]); 31.5 nM in assay [5] (setting [12]); 7.34 nM in assay [6] (setting [12]); 8.55 nM in assay [7] (setting [12]); 1.69 nM in assay [8] (setting [12]).

Turning to SASAFFGMSR, the Kd came out at 121 nM in assay [4] (setting [12]); 966 nM in assay [5] (setting [12]); 10 nM in assay [6] (setting [12]); 11.9 nM in assay [7] (setting [12]); 9.48 nM in assay [8] (setting [12]).

With SLIGSKTQI, the Kd in assay [1] (source organism: Homo sapiens) came out at 10600 nM; in assay [2] (source organism: Homo sapiens), 23.8 nM.

Regarding QMAPVSAMVR, the Kd worked out at 7320 nM in assay [4] (setting [12]); 527 nM in assay [5] (setting [12]); 157 nM in assay [6] (setting [12]); 1080 nM in assay [7] (setting [12]); 1020 nM in assay [8] (setting [12]).

For the sequence ILHAYCGIK, the Kd in assay [4] (setting [9]) was at least 33800 nM; in assay [5] (setting [9]) it was 32.8 nM; in assay [6] (setting [9]) it was 1860 nM; in assay [7] (setting [9]), 582 nM; in assay [8] (setting [9]), 2620 nM.

Consider HSVFKGFSDK, for which the Kd in assay [4] (setting [9]) stood at 14600 nM; in assay [5] (setting [9]), 11.6 nM; in assay [6] (setting [9]) it was 52 nM; in assay [7] (setting [9]) it was 13.5 nM; in assay [8] (setting [9]), 1420 nM.

Regarding QMLTSGEYK, the Kd in assay [4] (setting [9]) was determined as 7280 nM; in assay [5] (setting [9]), 6.95 nM; in assay [6] (setting [9]), 266 nM; in assay [7] (setting [9]), 3.67 nM; in assay [8] (setting [9]), 28.3 nM.

On to KSDAKRNSK, for which the Kd is at least 77700 nM in assay [4] (setting [9]); 1150 nM in assay [5] (setting [9]); at least 77700 nM in assay [6] (setting [9]); 887 nM in assay [7] (setting [9]); 1850 nM in assay [8] (setting [9]).

DLVKSYSLIR: the Kd in assay [4] (setting [9]) was 579 nM; in assay [5] (setting [9]), at least 10000 nM; in assay [6] (setting [9]), 1630 nM; in assay [7] (setting [9]) it was 6720 nM; in assay [8] (setting [9]), 173 nM.

For YLTMKAIEK, the Kd in assay [4] (setting [9]) came to 9830 nM; in assay [5] (setting [9]) it was 384 nM; in assay [6] (setting [9]), 1010 nM; in assay [7] (setting [9]) it was 867 nM; in assay [8] (setting [9]), 11400 nM.

What is called Kd is the free concentration of one partner at which half of the binding sites on the other are occupied at equilibrium, for simple one-to-one binding.
